Test results: patent US20210238292A1 (VACCINEX, published 2021)
Residue numbers refer to the chain shown, from its start. Where two headings read alike, the source gives them in different places.

Experiments:
[1] = target: T1, Cynomolgus CCR8-ECD-Fc (cynomolgus monkey); experiment: binding to CyCCR8-ECD-huFc protein (so in the source), OD45-570nm (so in the source)
T1 construct: also called CyCCR8-ECD-Fc; Cynomolgus CCR8-Fc
T1 chain: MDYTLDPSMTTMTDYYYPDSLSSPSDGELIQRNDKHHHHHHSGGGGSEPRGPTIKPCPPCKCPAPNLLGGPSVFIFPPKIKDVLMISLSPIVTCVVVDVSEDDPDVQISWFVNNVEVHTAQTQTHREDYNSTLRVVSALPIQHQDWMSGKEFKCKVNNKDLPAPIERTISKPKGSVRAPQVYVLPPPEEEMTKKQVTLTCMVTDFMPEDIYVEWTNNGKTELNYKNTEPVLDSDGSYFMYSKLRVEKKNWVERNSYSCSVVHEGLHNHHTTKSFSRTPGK

[2] = target: T2, Human CCR8-ECD-Fc (human); experiment: binding to HuCCR8-ECD-moFc protein (so in the source), OD45-570nm (so in the source)
T2 construct: also called HuCCR8-ECD-Fc; huCC8-ECD-Fc
T2 chain: T1 chain with P7L, M9V, M12V, S20I, L21F, G27A, R32T, D34G

[3] = target: T3, human CCR8 (C-C chemokine receptor type 8) expressed on cells (human, UniProt P51685 1-355); experiment: on-cell affinity, flow cytometry on 293T cells expressing human CCR8
T3 construct: also called HuCCR8

[4] = target: T4, mouse CCR8 expressed on 293T cells (mouse, UniProt P56484 1-353); experiment: flow cytometry, mouseCCR8-293T cells, fold geomean over secondary alone
T4 construct: whole, on cells
T4 sequence (looked up): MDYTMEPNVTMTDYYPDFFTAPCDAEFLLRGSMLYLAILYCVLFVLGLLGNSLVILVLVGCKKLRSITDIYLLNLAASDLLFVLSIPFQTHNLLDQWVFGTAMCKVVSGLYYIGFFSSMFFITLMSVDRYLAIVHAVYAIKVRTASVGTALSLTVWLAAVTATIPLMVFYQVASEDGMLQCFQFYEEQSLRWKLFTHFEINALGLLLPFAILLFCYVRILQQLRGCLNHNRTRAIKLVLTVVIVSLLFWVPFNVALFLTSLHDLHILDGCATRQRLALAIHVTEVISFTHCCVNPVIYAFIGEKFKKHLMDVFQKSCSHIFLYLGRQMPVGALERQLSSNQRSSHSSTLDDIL

[5] = target: T1, Cynomolgus CCR8-ECD-Fc; experiment: binding to CyCCR8-ECD-huFc protein (so in the source), OD45-570nm (so in the source)
[6] = target: T2, Human CCR8-ECD-Fc; experiment: binding to HuCCR8-ECD-moFc protein (so in the source), OD45-570nm (so in the source)
[7] = target: T5, cynomolgus monkey CCR8 expressed on cells (cynomolgus monkey, UniProt G7NYJ2 1-355); experiment: on-cell affinity, flow cytometry on 293T cells expressing cyno CCR8
T5 construct: whole, on cells; also called cyno CCR8; CyCCR8
Target sequence in this assay (G7NYJ2 entry or part of it): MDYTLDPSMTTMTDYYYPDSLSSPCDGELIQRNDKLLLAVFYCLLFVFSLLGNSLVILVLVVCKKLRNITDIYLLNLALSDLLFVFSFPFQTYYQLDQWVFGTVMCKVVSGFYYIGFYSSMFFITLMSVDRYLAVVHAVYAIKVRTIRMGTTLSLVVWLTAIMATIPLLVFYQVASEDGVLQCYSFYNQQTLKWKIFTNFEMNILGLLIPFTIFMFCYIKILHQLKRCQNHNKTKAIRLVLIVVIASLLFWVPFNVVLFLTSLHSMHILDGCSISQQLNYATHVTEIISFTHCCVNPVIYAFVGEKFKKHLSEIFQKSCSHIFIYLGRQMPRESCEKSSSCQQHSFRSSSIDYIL

[8] = target: T4, mouse CCR8 expressed on 293T cells; experiment: flow cytometry, mouseCCR8-293T cells, fold geomean over secondary alone; remark: listed apart in the source
[9] = target: T2, Human CCR8-ECD-Fc; experiment: binding to HuCCR8-ECD-moFc protein (so in the source), OD45-570nm (so in the source)
[10] = target: T4, mouse CCR8 expressed on 293T cells; experiment: flow cytometry, mouseCCR8-293T cells, fold geomean over secondary alone; remark: listed apart in the source
[11] = target: T1, Cynomolgus CCR8-ECD-Fc; experiment: binding to CyCCR8-ECD-huFc protein (so in the source), OD45-570nm (so in the source)
[12] = target: T5, cynomolgus monkey CCR8 expressed on …; experiment: on-cell affinity, flow cytometry on 293T cells expressing cyno CCR8; remark: listed apart in the source
[13] = target: T2, Human CCR8-ECD-Fc; experiment: binding to HuCCR8-ECD-Fc protein, OD450-570 nm
[14] = target: T3, human CCR8 (C-C chemokine receptor type …); experiment: on-cell affinity, flow cytometry on 293T cells expressing human CCR8; remark: listed apart in the source
[15] = target: T4, mouse CCR8 expressed on 293T cells; experiment: flow cytometry, MoCCR8-293T cells, fold geomean over secondary alone
[16] = target: T1, Cynomolgus CCR8-ECD-Fc; experiment: binding to CyCCR8-ECD-Fc protein, OD450-570 nm
[17] = target: T4, mouse CCR8 expressed on 293T cells; experiment: flow cytometry, MoCCR8-293T cells, fold geomean over secondary alone; remark: listed apart in the source
[18] = target: T1, Cynomolgus CCR8-ECD-Fc; experiment: binding to CyCCR8-ECD-Fc protein, OD450-570 nm
[19] = target: T2, Human CCR8-ECD-Fc; experiment: binding to HuCCR8-ECD-Fc protein, OD450-570 nm
[20] = target: T5, cynomolgus monkey CCR8 expressed on …; experiment: flow cytometry, CynoCCR8-293T cells, fold geomean over secondary alone
[21] = target: T2, Human CCR8-ECD-Fc; experiment: binding to HuCCR8-ECD-Fc protein, OD450-570 nm
[22] = target: T4, mouse CCR8 expressed on 293T cells; experiment: flow cytometry, MoCCR8-293T cells, fold geomean over secondary alone; remark: listed apart in the source
[23] = target: T1, Cynomolgus CCR8-ECD-Fc; experiment: binding to CyCCR8-ECD-Fc protein, OD450-570 nm
[24] = target: T3, human CCR8 (C-C chemokine receptor type …); experiment: flow cytometry, HuCCR8-293T cells, fold geomean over secondary alone
[25] = target: T1, Cynomolgus CCR8-ECD-Fc; experiment: binding to CynoCCR8-ECD-Fc protein, OD450-570nm
[26] = target: T2, Human CCR8-ECD-Fc; experiment: binding to HuCCR8-ECD-Fc protein, OD450-570nm
[27] = target: T3, human CCR8 (C-C chemokine receptor type …); experiment: on-cell affinity, flow cytometry on 293T cells expressing human CCR8; remark: listed apart in the source
[28] = target: T4, mouse CCR8 expressed on 293T cells; experiment: flow cytometry, MoCCR8-293T cells, fold geomean over secondary alone; remark: listed apart in the source
[29] = target: T5, cynomolgus monkey CCR8 expressed on …; experiment: on-cell affinity, flow cytometry on 293T cells expressing cyno CCR8; remark: listed apart in the source
Target sequence in this assay (G7NYJ2 entry or part of it): as above

T3 sequence (P51685 whole entry): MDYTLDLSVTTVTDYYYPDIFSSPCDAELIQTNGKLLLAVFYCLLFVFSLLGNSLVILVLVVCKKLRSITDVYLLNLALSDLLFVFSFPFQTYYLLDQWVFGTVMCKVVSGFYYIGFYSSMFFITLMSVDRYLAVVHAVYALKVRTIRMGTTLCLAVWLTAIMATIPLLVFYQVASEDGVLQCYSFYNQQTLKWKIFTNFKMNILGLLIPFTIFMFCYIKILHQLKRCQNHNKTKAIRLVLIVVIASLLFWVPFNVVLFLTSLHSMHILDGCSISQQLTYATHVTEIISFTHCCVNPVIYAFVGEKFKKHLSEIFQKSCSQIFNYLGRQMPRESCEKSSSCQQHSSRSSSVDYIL

B1: anti-CCR8-1-3 (antibody, V domains shown)
VH: QVQLVQSGAEVKKPGASVKVSCKASGYTFTSYYMHWVRQAPGQGLEWMGIINPSGGSTSYAQKFQGRVTMTRDTSTSTVYMELSSLRSEDTAVYYCARGVGNGFRFDYWGQGTLVT
VL: QSALTQPPSVSGSPGQSITISCSGTSSDVGIYNLVSWYQQHPGKAPKLIIYEVIKRPSGISNRFSGFKSGNTASLTISGLQAEDEADYYCSSYAGPVTYVVFGGGTKLTVL
notes: Parental-1 heavy chain with a shuffled lambda light chain; Human IgG expressed in CHO cells
In the case of B1, the binding result [1] is reported as “binds”, the binding result [2] is reported as “binds” and the Kd [3] is reported as 1.38 nM. B1: no binding (tested: 10 ug/ml) [4].

B2: anti-CCR8-1-4 (antibody, V domains shown)
VH: B1 VH
VL: QSALTQPASVSGSPGQSITISCSGTSSNIGKYNLVSWYQQHPGEAPTLLIYEATKRPSGVSNRFSGSKSGNTASLTISGLQAEDEADYICSSYAGSRVFVVFGGGTKLTVL
notes: as for B1
B2 was tested, and the binding result [5] was “binds”, the binding result [6] was “binds” and the Kd [7] was 35.9 nM. For the same binder, the binding result [8] was “no binding (tested: 10 ug/ml)” and the Kd [3] was 0.28 nM.

B3: anti-CCR8-1-5 (antibody, V domains shown)
VH: B1 VH
VL: B1 VL with I31S, H41E, I54N, I60V, F67S, Y89H, P96S, V97S
notes: as for B1
With B3 the binding result [9] was “binds”, the Kd [7] was 48.6 nM and the binding result [10] was “no binding (tested: 10 ug/ml)”. The binding result [11] was “binds” and the Kd [3] was 1.36 nM.

B4: anti-CCR8-2 (antibody, V domains shown)
VH: EVQLLESGGGLVQPGGSLRLSCAAGGFTFSAYTMNWVRQAPGKGLEWVSAISASGGRTYYADSVKGRFTISRDNSKNTLYLQMNSLRAEDTAVYYCARRFARGWFDPWGQGTLVTVSS
VL: QSVLTQPPSVSAAPGQKVTISCSGSSSNIGNNYVSWYQQLPGTAPKLLIYDNNKRPSGIPDRFSGSKSGTSATLGITGLQTGDEADYYCGTWDSSLSAWVFGGGTKLT
notes: Cloned into mammalian expression vectors; human IgG; also called heavy chain H23727
For B4, the Kd [12] was 0.94 nM, the binding result [13] was “binds” and the Kd [14] was 0.41 nM. B4: no binding (tested: 10 ug/ml) [15]; binds [16].

B5: anti-CCR8-2-1 (antibody, V domains shown)
VH: B4 VH with G25R, T28I, A31G, N35L, S52T
VL: B4 VL
notes: Human IgG from a mammalian expression vector
For B5, the Kd [12] was 1.09 nM, the binding result [17] was “no binding (tested: 10 ug/ml)” and the Kd [14] was 0.54 nM. B5: binds [18]; binds [19].

B6: anti-CCR8-2-2 (antibody, V domains shown)
VH: EVQLLESGGGLVQPGGSLRLSCAAGGFTFSAYTMNWVRQAPGKGLEWVSAISASGGRTYYADSVKGRFTISRDNSKNTLYLQMNSLRAEDTAVYYCARRFARGWFDPWGQGTLVT
VL: QSVLTQPPSVSAAPGQRVTISCSGSTSNIGNHYVSWYQQLPRAVPKLVIYDNDKRPSGISDRFSGSRSGTSATLDISGLQAGDEADYYCATWDYSLTAVVFGGGTKLTVL
notes: Heavy chain of anti-CCR8-2 (H23727) cross-paired with a shuffled lambda light chain; Human IgG
In the case of B6, the Kd [12] is reported as 1.6 nM, the “EC50 (read off the curve)” value [20] is reported as about 1 µg/mL and the Kd [14] is reported as 0.8 nM. B6: binds [21]; no binding (tested: 10 ug/ml) [22]; binds [23].

B7: anti-CCR8-2-6 (antibody, V domains shown)
VH: EVQLVESGGGLVQPGRSLRLSCAASGFTFDDYAMHWVRQAPGKGLEWVSGISWNSGSIGYADSVKGRFTISRDNSKNSLYLQMNSLRAEDTALYYCARGRVSYRESLRFDYWGQGTLVT
VL: B4 VL
notes: Human IgG
In the case of B7, the “EC50 (read off the curve)” value [24] is reported as about 2 µg/mL, the “EC50 (read off the curve)” value [25] is reported as about 0.04 µg/mL and the “EC50 (read off the curve)” value [26] is reported as about 0.04 µg/mL. The Kd [27] was 1.5 nM, the binding result [28] was “no binding (tested: 10 ug/ml)” and the Kd [29] was 4.5 nM.
